# According to patent publication US20260022144A1, “ANALGESIC POLYPEPTIDE” (Shanghai Puyou Biomedical Co., Ltd., priority 2022, published 2026):
# B1: SEQ ID NO: 29: exemplary polypeptide of the present disclosure; artificial polypeptide of formula (I) X-Y (protein)
# chain: SEKKQPVDLGLLEEDDEFEEFPAEDWAGLDEDEDAHVWEDNWDDDNVEDDFSNQLRATVLLMILVAETPYGAYVLHQKGRMASAFLAA
# Tests used:
# [1] = system: VZV-induced pain model in rats; test: VZV-induced pain model in rats, mechanical allodynia (von Frey) test; assay type: in vivo, rat; conditions: for 50% PWT (paw withdrawal threshold), analgetic effect: vs placebo
# Method: A summary of the method for inducing pain model in rats by means of subcutaneous VZV inoculation is provided hereinafter. Briefly, male Sprague Dawley (SD) rats were deeply anesthetized by intraperitoneal injection of a Zoletil R: 50 (30 mg/kg)/xylazine (6 mg/kg) anesthetic at an injection volume of 6 mL/kg, and then the virus inoculation was performed by subcutaneous injection at the footpad area. The infection dose was 22800 TCID50 per animal, and the infection volume was 150 μL for all rats.
# Administration was performed on alternate days. Briefly, the test articles were administered by subcutaneous injection at the footpad area on Day 1 and Day 3, respectively. As for Group 2, the administration of SEQ ID NO: 29 was initiated from the first concentration. Namely, the first concentration (10 μg/mL) was administered on Day 1, and the second concentration (20 μg/mL) was administered on Day 3. Pain was measured once after each administration.
# Mechanical allodynia tests (also called “von Frey tests”) for pain measurements were performed on the rats one hour after administration of the test articles on Day 1 and Day 3, respectively. In the behavioral test for rats, mechanical allodynia is expressed as the 50% paw withdrawal threshold (PWT), which is calculated according to the following formula:
# [formula] • wherein • Xf=final test fiber value used in the test • k=tabular value for the pattern of positive/negative responses (Chaplan et al. 1994, page 62) • δ=mean difference.
# Briefly, the rats were placed individually in plexiglass boxes with a grid at the bottom to ensure that the rats' feet could be tested. The rats were acclimated to the environment for 15 minutes prior to the test. After the acclimation was completed, pain (mechanical allodynia) was tested on the center of the sole of the left hind foot of the rats using test fibers. The test fibers included 8 test strengths: 3.61 (0.4 g), 3.84 (0.6 g), 4.08 (lg), 4.31 (2 g), 4.56 (4 g), 4.74 (6 g), 4.93 (8 g) and 5.18 (15 g). During the test, the test fibers were pressed vertically against the skin and forces were applied to bend the fibers for 6-8 seconds with a 5-second interval between each test. During the test, a pain response was recorded if the animals quickly withdrew their feet. The pain response was also recorded if the animal withdrew their feet as the test fibers left the animal's skin. The pain response was not recorded if the animal moved or ambulated, and the test should be repeated. The test was started with 4.31 (2 g). If the animal had pain response, the next test should be performed with a test fiber with a lower strength: if the animal has no pain response, the next test should be performed with a test fiber with a higher strength. The maximum strength of the tested fibers was 5.18 (15 g). The test results were recorded in a table, wherein the presence of pain response was recorded as “x”, and the absence of pain response was recorded as “0”.
# The rats were randomly divided into 2 groups, with 8 rats in the placebo group (Group 1, administered with vehicle (normal saline)) and 8 rats in the treatment group (Group 2, administered with 30 mg SEQ ID NO: 29/kg). Briefly, the test articles were administered to the rats on a single day by intravenous injection.
# Mechanical allodynia tests were performed on the rats 0.5 h after administration of the test articles according to the method as recited in Example 1, respectively.
# The rats were randomly divided into 3 groups, with 8 rats in the placebo group (Group 1, administered with vehicle (normal saline)) and 16 rats in the treatment groups (Groups 2 and 3, 8 rats/group, administered with various polypeptides). Briefly, vehicle (normal saline) was administered to the rats from Group 1 and various polypeptides were administered to the rats from Group 2 (SEQ ID: 29, SEQ ID: 57 and SEQ ID: 49; 10 mg polypeptide/kg) and 3 (SEQ ID: 75 and SEQ ID: 28: 10 mg polypeptide/kg) on a single day by intravenous injection.
# [2] = system: bone pain model induced by Walker 256 breast cancer cells in rats; test: Bone pain model induced by Walker 256 breast cancer cells in rats, mechanical allodynia test; assay type: in vivo, rat; conditions: Wistar rats; for pain thresholds (50% PWT) of treatment group vs model group: 60 mg/kg i.v. once a day
# Method: 28 female Wistar rats in total were randomly divided into 3 groups based on body weights, with 8 rats in the Sham group (Group 1, administered with vehicle (normal saline)), 10 rats in the model group (Group 2, administered with vehicle (normal saline)) and 10 rats in the treatment group (Group 3, administered with 60 mg SEQ ID NO: 29/kg).
# A summary of the method for inducing bone pain model in rats by means of intratibial injection of a suspension of Walker 256 breast cancer cells is provided hereinafter. Briefly, the rats were anesthetized, then 4 μL of a suspension of Walker 256 cancer cells (containing about 4× 10^5 cells) was injected into the tibia cavity of the right hind limb of the rats (day 0). The rats in Sham group were injected with an equal volume of normal saline.
# After injection of cancer cells (day 0), administration was started on the next day (day 1) and performed once a day for a consecutive period of 14 days (day 1, day 2 . . , day 14, respectively).
# The rats were subjected to mechanical allodynia tests 1 h before and after administration of the test articles according to the method as recited in Example 1 on day 7 (D7) and day 14 (D14), respectively.
molecule,measurement,setting,value
B1,analgetic effect (50% PWT),"[1]; 10 mg polypeptide/kg i.v., single administration, tested 0.5 h after administration",apparent analgetic effect
same,"50% PWT (paw withdrawal threshold), analgetic effect","[1]; 30 mg/kg i.v., single administration, tested 0.5 h after administration",significantly increased the 50% PWT values of the rats
same,"50% PWT (paw withdrawal threshold), analgetic effect","[1]; s.c. (footpad) 10 then 20 μg/mL, 50 μL, tested 1 h after administration",increased the 50% PWT values of the rats in a dose-dependent manner
same,course of pain thresholds (50% PWT) of treatment group vs model group,[2]; 60 mg/kg i.v. once a day for 14 days,increased gradually with the increase of the number of administrations
same,pain thresholds (50% PWT) of treatment group vs model group,[2]; 1 h after administration on day 7 (D7),increased significantly
same,pain thresholds (50% PWT) of treatment group vs model group,[2]; 1 h after administration on day 14 (D14),increased significantly
same,pain thresholds (50% PWT) of treatment group vs model group,[2]; before administration on day 7 (D7),no significant difference
same,pain thresholds (50% PWT) of treatment group vs model group,[2]; before administration on day 14 (D14),increased significantly
